The nature of this experiment: IL-2 binding affinity of the separate receptor chains. Details: species or system human. As to conditions: read-out: Kd of the chain for IL-2; each chain expressed separately. As to the method:
Monoclonal antibodies reactive with the Tac epitope were made available by Dr. Ellis Reinherz (1HT4; IgG2a Dana-Farber Cancer Center, Boston Mass.). IL-2 and anti-Tac ware radioiodinated using lactoperoxidase-glucose oxidase (Enzymobeads, Biorad, Richmond, Calif.) according to the manufacturer's instructions. The specific activity of anti-Tac was 5.3×10^4 CPM/pmole. […] Binding of both ligands to whole cells was performed, as described in Robb et al., Vol 154 J. Exp. Med., p. […] After 20-min incubation at 37° C., the tubes were centrifuged (8,500×g, 80s), the tips of the tubes containing the cell pellet were severed and the cell-bound and free radioactivity were determined by solid scintillation counting. The calculated values for the number of binding sites per cell were derived by Scatchard analysis of equilibrium binding data after subtraction of nonspecific binding determined in the presence of 150-fold molar excess of unlabeled ligand. […]
Particularly convincing in this regard is the finding that the chain present in limiting amounts dictates the number of high affinity receptors, and either α or β chains can function in this role. […] In contrast, YT cells express […] in excess, and high affinity receptors are detected only when the cells are induced to express β chains.

B1: β chain: previously isolated 55,000 dalton IL-2 receptor protein bearing the Tac epitope (protein, UniProt P01589 22-272, looked up)
Interleukin-2 receptor …: ELCDDDPPEIPHATFKAMAYKEGTMLNCECKRGFRRIKSGSLYMLCTGNSSHSSWDNQCQCTSSATRNTTKQVTPQPEEQKERKTTEMQSPMQPVDQASLPGHCREPPPWENEATERIYHFVVGQMVYYQCVQGYRALHRGPAESVCKMTHGKTRWTQPQLICTGEMETSQFPGEEKPQASPEGRPESETSCLVTTTDFQIQTEMAATMETSIFTTEYQVAVAGCVFLLISVLLLSGLTWQRRQRKSRRTI
Broadly, the Kd is the free concentration of one partner at which half of the binding sites on the other are occupied at equilibrium, for simple one-to-one binding. Turning to B1, the dissociation constant (Kd) is 10 nM.
